From patent US20210317456

Columns and labels:
[1] = test system: Immunoglobulin G (total IgG) (Homo sapiens); assay: filter
[2] = test system: IgG3-Kappa (Homo sapiens), P01860-1+P01834; assay: pulldown; conditions: Protein L beads
[3] = test system: IgG1-Kappa (Homo sapiens), P01857-1+P01834; assay: pulldown; conditions: Protein L beads
[4] = test system: Immunoglobulin G (total IgG); assay: pulldown; conditions: SB18, 37C
[5] = test system: IgG4-Kappa (Homo sapiens), P01861-1+P01834; assay: pulldown; conditions: Protein L beads
[6] = test system: IgG2-Fc (Homo sapiens), P01859-1; assay: filter; conditions: n (P) = NapdU; Zorbax, SB18, 37 C
[7] = test system: Total IgG (rabbit) (Oryctolagus cuniculus); assay: filter; conditions: n (P) = NapdU; Zorbax, SB18, 37 C
IgA (Homo sapiens) [8] = assay: filter; conditions: n (P) = NapdU; Zorbax, SB18, 37 C
IgM (Homo sapiens) [9] = assay: filter; conditions: n (P) = NapdU; Zorbax, SB18, 37 C
[10] = test system: IgG1-Fc (Homo sapiens), P01857-1; assay: filter; conditions: n (P) = NapdU; Zorbax, SB18, 37 C
[11] = test system: IgG4-Fc (Homo sapiens), P01861-1; assay: filter; conditions: n (P) = NapdU; Zorbax, SB18, 37 C
IgD (Homo sapiens) [12] = assay: filter; conditions: n (P) = NapdU; Zorbax, SB18, 37 C
[13] = test system: IgG3-Fc (Homo sapiens), P01860-1; assay: filter; conditions: n (P) = NapdU; Zorbax, SB18, 37 C
[14] = test system: Total IgG (monkey) (monkey); assay: filter; conditions: n (P) = NapdU; Zorbax, SB18, 37 C
[15] = test system: β-FGFR fusion (Fc fusion protein) (Homo sapiens); assay: filter; conditions: n (P) = NapdU; Zorbax, SB18, 37 C
IgA (Homo sapiens) [16] = assay: pulldown; conditions: P = NapdU; Zorbax beads, SB18, 37C
IgM (Homo sapiens) [17] = assay: pulldown; conditions: P = NapdU; Zorbax beads, SB18, 37C
[18] = test system: IgG1-Fc (Homo sapiens), P01857-1; assay: pulldown; conditions: P = NapdU; 37C, bead partitioning
[19] = test system: IgG4-Fc (Homo sapiens), P01861-1; assay: pulldown; conditions: P = NapdU; 37C, bead partitioning
IgD (Homo sapiens) [20] = assay: pulldown; conditions: P = NapdU; Zorbax beads, SB18, 37C
[21] = test system: IgG3-Fc (Homo sapiens), P01860-1; assay: pulldown; conditions: P = NapdU; 37C, bead partitioning
[22] = test system: Total IgG (monkey) (monkey); assay: pulldown; conditions: P = NapdU; Zorbax beads, SB18, 37C
[23] = test system: β-FGFR fusion (Fc fusion protein) (Homo sapiens); assay: pulldown; conditions: P = NapdU; 37C, bead partitioning
[24] = test system: IgG2-Fc (Homo sapiens), P01859-1; assay: pulldown; conditions: P = NapdU; 37C, bead partitioning
[25] = test system: Total IgG (rabbit) (Oryctolagus cuniculus); assay: pulldown; conditions: P = NapdU; Zorbax beads, SB18, 37C
[26] = n (P) = NapdU, SB18, 5 mM MgCl2, 37 C
[27] = n (P) = NapdU, considered no binding
[28] = n (P) = NapdU, SB18, 5 mM MgCl2, 37 C, sequence identical to _21 to _25
[29] = n (P) = 2NapdU, SB18, 5 mM MgCl2, 37 C

Sequence of IgG4-Fc (Homo sapiens), P01861-1 (P01861 other isoform, or with tags, fused parts or gaps): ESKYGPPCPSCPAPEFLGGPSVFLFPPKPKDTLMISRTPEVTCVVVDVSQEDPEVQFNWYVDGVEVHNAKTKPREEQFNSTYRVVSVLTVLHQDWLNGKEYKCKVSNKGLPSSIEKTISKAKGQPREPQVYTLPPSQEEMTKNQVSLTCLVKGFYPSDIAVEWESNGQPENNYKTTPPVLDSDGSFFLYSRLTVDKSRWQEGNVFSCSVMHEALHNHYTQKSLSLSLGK
Sequence of IgG4-Kappa (Homo sapiens), P01861-1+P01834 (P01861 other isoform, or with tags, fused parts or gaps, chain 1 of 2, other chains not shown): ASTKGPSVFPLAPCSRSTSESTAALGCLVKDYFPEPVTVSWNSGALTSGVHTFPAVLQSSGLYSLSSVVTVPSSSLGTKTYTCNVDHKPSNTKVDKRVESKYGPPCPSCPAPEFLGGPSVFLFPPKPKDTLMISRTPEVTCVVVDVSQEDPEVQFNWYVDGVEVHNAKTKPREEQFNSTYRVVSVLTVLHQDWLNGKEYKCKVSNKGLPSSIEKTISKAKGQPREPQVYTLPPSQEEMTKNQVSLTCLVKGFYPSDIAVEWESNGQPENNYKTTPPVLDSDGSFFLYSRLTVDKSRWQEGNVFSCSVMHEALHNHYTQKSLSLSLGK
Sequence of IgG3-Fc (Homo sapiens), P01860-1 (P01860 other isoform, or with tags, fused parts or gaps): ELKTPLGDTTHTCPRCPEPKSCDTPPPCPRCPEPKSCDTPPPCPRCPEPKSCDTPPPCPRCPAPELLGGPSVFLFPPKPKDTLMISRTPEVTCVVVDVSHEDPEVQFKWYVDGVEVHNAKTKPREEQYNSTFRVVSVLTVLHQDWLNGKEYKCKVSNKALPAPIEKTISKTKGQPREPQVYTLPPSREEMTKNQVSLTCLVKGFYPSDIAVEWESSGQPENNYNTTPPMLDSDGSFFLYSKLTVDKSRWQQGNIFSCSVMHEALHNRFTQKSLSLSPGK
Sequence of IgG3-Kappa (Homo sapiens), P01860-1+P01834 (P01860 other isoform, or with tags, fused parts or gaps, chain 1 of 2, other chains not shown): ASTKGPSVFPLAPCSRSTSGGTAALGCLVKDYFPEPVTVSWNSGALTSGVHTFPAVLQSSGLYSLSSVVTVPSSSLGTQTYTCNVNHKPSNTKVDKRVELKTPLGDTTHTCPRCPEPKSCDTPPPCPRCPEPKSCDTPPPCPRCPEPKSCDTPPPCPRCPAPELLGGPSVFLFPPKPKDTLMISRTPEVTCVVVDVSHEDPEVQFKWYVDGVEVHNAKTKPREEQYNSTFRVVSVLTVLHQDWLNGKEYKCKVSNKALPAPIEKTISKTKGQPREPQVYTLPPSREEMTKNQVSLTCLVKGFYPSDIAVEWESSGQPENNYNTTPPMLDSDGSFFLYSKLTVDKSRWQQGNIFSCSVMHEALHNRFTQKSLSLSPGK
Sequence of IgG2-Fc (Homo sapiens), P01859-1 (P01859 other isoform, or with tags, fused parts or gaps): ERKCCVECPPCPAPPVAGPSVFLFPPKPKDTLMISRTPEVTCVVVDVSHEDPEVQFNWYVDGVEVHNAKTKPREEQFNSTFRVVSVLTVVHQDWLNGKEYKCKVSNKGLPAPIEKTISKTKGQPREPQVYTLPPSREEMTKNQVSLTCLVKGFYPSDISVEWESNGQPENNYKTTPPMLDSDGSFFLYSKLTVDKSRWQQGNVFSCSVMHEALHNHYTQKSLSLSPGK

“GATGGCGAACTCCCTGAATGCTCTTGTCTTAAGTCCCCAACA [14125-144_7]” gave a Kd [1, 26] of 0.00696 µM.
“GCACGATGGCGAACTCCCTGAATGCTCTTGTCTTAAGTCCCCAACA [14125-144_5]” gave a Kd [1, 26] of 0.00887 µM.
In the case of “GCCTGCACGATGGCGAACTCCCTGAATGCTCTTG [14125-144_19]”, the Kd [1, 27] is reported as > 1 µM.
Work on “GCCTGCACGATGGCGAACTCCCTGAATGCTCTTGTCTTAA [14125-144_16]” yielded a Kd [1, 26] of 0.00882 µM.
Work on “GCCTGCACGATGGCGAACTCCCTGAATGCTCTTGTCTTAAGTCC [14125-144_14]” yielded a Kd [1, 26] of 0.0158 µM.
In the case of “GCCTGCACGATGGCGAACTCCCTGAATGCTCTTGTCTTAAGTCCCC [14125-144_13]”, the Kd [1, 26] is reported as 0.0143 µM.
With “GCCTGCACGATGGCGAACTCCCTGAATGCTCTTGTCTTAAGTCCCCAA [14125-144_12]” the Kd [1, 26] was 0.0172 µM.
Work on “GCCTGCACGATGGCGAACTCCCTGAATGCTCTTGTCTTAAGTCCCCAACA [14125-144_3]” yielded a Kd ([2]; n (P) = NapdU, SB17, 37 C) of 0.004 µM, a Kd ([3]; n (P) = NapdU, SB17, 37 C) of 0.02 µM and a Kd ([4]; P = NapdU at all n positions, 18.8 nM in Table 6) of 0.0163 µM. For the same sequence, the Kd ([5]; n (P) = NapdU, SB17, 37 C) was 0.005 µM, the Kd [6] was 0.008 µM and the Kd [7] was 0.04 µM. It also gave a Kd (IgA (Homo sapiens) [8]) of 0.03 µM, a Kd (IgM (Homo sapiens) [9]) of 0.04 µM and a Kd [10] of 0.04 µM. For the same sequence, the Kd [11] was 0.02 µM, the Kd (IgD (Homo sapiens) [12]) was 0.6 µM and the Kd [13] was 0.005 µM. For the same sequence, the Kd [14] was 0.08 µM and the Kd [15] was 0.003 µM.
“GGCGAACTCCCTGAATGCTCTTGTC [14125-144_39]” was tested, and the Kd [1, 27] was > 1 µM.
In the case of “GGCGAACTCCCTGAATGCTCTTGTCT [14125-144_35]”, the Kd [1, 27] is reported as > 1 µM.
In the case of “GGTACGATTTTCAGTTGGATCCAGTAC [5406-56_48]”, the Kd ([2]; P = NapdU, SB17, 37C) is reported as 0.1 µM, the Kd (IgA (Homo sapiens) [16]) is reported as 0.2 µM and the Kd ([3]; P = NapdU, SB17, 37C) is reported as 0.002 µM. It also gave a Kd (IgM (Homo sapiens) [17]) of 0.07 µM, a Kd ([4]; P = NapdU, 6E-09 M in Table 7) of 0.00581 µM and a Kd [18] of 0.003 µM. It also gave a Kd [19] of 0.03 µM, a Kd (IgD (Homo sapiens) [20]) of 0.5 µM and a Kd ([5]; P = NapdU, SB17, 37C) of 0.05 µM. The Kd [21] was 0.07 µM, the Kd [22] was 0.1 µM and the Kd [23] was 0.004 µM.
With “GGTACGATTTTCAGTTGGATCCAGTACC [5406-56_42]” the Kd [1, 26] was 0.00497 µM.
Sequence “GGTACGATTTTCAGTTGGATCCAGTACCT [5406-56_36]” has a Kd [1, 26] of 0.00344 µM.
Sequence “GGTACGATTTTCAGTTGGATCCAGTACCTG [5406-56_30]” has a Kd [1, 26] of 0.00322 µM.
In the case of “GGTACGATTTTCAGTTGGATCCAGTACCTGG [5406-56_24]”, the Kd [1, 28] is reported as 0.0051 µM.
Sequence “GTACGATTTTCAGTTGGATCCAGTACC [5406-56_43]” has a Kd [1, 26] of 0.011 µM.
For “GTACGATTTTCAGTTGGATCCAGTACCTGG [5406-56_25]”, the Kd [1, 28] was 0.0219 µM.
“TACGATTTTCAGTTGGATCCAGTACCTG [5406-56_32]” gave a Kd ([4]; P = NapdU, bead partitioning) of 0.0754 µM.
Sequence “TACGATTTTCAGTTGGATCCAGTACCTGG [5406-56_26]” has a Kd ([4]; P = NapdU, bead partitioning) of 0.0643 µM.
In the case of “TACGGTACGATTTTCAGTTGGATCCAGTAC [5406-56_45]”, the Kd [1, 26] is reported as 0.0218 µM.
For “TACGGTACGATTTTCAGTTGGATCCAGTACC [5406-56_39]”, the Kd [1, 26] was 0.00674 µM.
“TACGGTACGATTTTCAGTTGGATCCAGTACCT [5406-56_33]” was tested, and the Kd [1, 26] was 0.00531 µM.
For “TACGGTACGATTTTCAGTTGGATCCAGTACCTG [5406-56_27]”, the Kd [1, 26] was 0.00556 µM.
“TACGGTACGATTTTCAGTTGGATCCAGTACCTGG [5406-56_21]” gave a Kd ([4]; P = NapdU, table prints a shorter sequence than the listing for SEQ 18) of 0.00813 µM.
For “TACGGTACGATTTTCAGTTGGATCCAGTACCTGGCTGGAGAGAA [5406-56_6]”, the Kd ([4]; P = NapdU, bead partitioning) was 0.00905 µM.
“TCCAAGACTGCGGTTACCTTGTAGGCGATTATGGGCAG [5334-8_9]” showed a Kd [1, 29] of 0.00838 µM.
Work on “TCCACATCCAAGACTGCGGTTACCTTGTAGGCGATTATGGGCAG [5334-8_6]” yielded a Kd ([4]; P = 2NapdU, bead partitioning) of 0.00789 µM.
“TCCATACGGTACGATTTTCAGTTGGATCCAGTACCTGGCTGGAGAGAA [5406-56_4]” was tested, and the Kd ([4]; P = NapdU, bead partitioning) was 0.00311 µM.
Sequence “TGCGGTTACCTTGTAGGCGATTATGGGCAG [5334-8_24]” has a Kd [1, 29] of 0.00551 µM.
In the case of “TGGCGAACTCCCTGAATGCTCTTGTC [14125-144_38]”, the Kd ([4]; P = NapdU, bead partitioning) is reported as > 1 µM.
“TGGCGAACTCCCTGAATGCTCTTGTCT [14125-144_34]” was tested, and the Kd ([4]; P = NapdU, bead partitioning) was > 1 µM.
“TGGCGAACTCCCTGAATGCTCTTGTCTT [14125-144_30]” showed a Kd ([2]; P = NapdU, SB17, 37C) of 0.008 µM, a Kd [24] of 0.007 µM and a Kd [25] of 0.1 µM. The Kd (IgA (Homo sapiens) [16]) was 0.1 µM, the Kd ([3]; P = NapdU, SB17, 37C) was 0.04 µM and the Kd (IgM (Homo sapiens) [17]) was 0.006 µM. The Kd ([4]; P = NapdU, 3E-08 M in Table 7) was 0.00818 µM, the Kd [18] was 0.03 µM and the Kd [19] was 0.03 µM. For the same sequence, the Kd (IgD (Homo sapiens) [20]) was 0.08 µM, the Kd ([5]; P = NapdU, SB17, 37C) was 0.004 µM and the Kd [21] was 0.002 µM. For the same sequence, the Kd [22] was 0.06 µM and the Kd [23] was 0.004 µM.
“TGGCGAACTCCCTGAATGCTCTTGTCTTA [14125-144_26]” gave a Kd ([4]; P = NapdU, bead partitioning) of 0.00503 µM.
In the case of “TGGCGAACTCCCTGAATGCTCTTGTCTTAA [14125-144_22]”, the Kd ([4]; P = NapdU, bead partitioning) is reported as 0.00355 µM.
Work on “TGGCGAACTCCCTGAATGCTCTTGTCTTAAGTCCCCAACA [14125-144_8]” yielded a Kd ([4]; P = NapdU, bead partitioning) of 0.00682 µM.
With “TTTTCAGTTGGATCCAGTACCTGGCTGGAGAGAA [5406-56_11]” the Kd ([4]; P = NapdU, bead partitioning) was > 1 µM.
